Data as given in publication PMC11772769, “Selective cargo and membrane recognition by SNX17 regulates its interaction with Retriever” (EMBO Reports, 2024).

B1: unnamed (parent)
chain 1: MHFSIPETESRSGDSGGSAYVAYNIHVNGVLHCRVRYSQLLGLHEQLRKEYGANVLPAFPPKKLFSLTPAEVEQRREQLEKYMQAVRQDPLLGSSETFNSFLRRAQQETQQVPTEEVSLEVLLSNGQKVLVNVLTSDQTEDVLEAVAAKLDLPDDLIGYFSLFLVREKEDGAFSFVRKLQEFELPYVSVTSLRSQEYKIVLRKSYWDSAYDDDVMENRVGLNLLYAQTVSDIERGWILVTKEQHRQLKSLQEKVSKKEFLRLAQTLRHYGYLRFDACVADFPEKDCPVVVSAGNSELSLQLRLPGQQLREGSFRVTRMRCWRVTSSVPLPSGSTSSPGRGRGEVRLELAFEYLMSKDRLQWVTITSPQAIMMSICLQSMVDELMVKKSGGSIRKMLRRRVGGTLRRSDSQQAVKSPPLLESPDATRESMVKLSSKLSAVSLRGIGSPSTDASASDVHGNFAFEGIGDEDL
chain 2: not shown

Variants of: B1
Assay: fluorescence anisotropy
Settings: with partner chain of the complex shown; 5-FAM-labeled L2 14-mer peptide
chain 1 W321A was tested, and the Kd was 76 µM.
chain 1 H457A gave a Kd of 1.1 µM.
